Laboratory results from patent US7005258 (NATIONAL INSTITUTES OF HEALTH, dated 2006).

Molecular target: T1, human cdc2 (p34^cdc2, endogenous, HeLa cells) (human, UniProt P06493 1-297)
T1 construct: On p13 beads it is present as cdc2/cyclin B; also called p34^cdc2 kinase
Test: precipitation on p13 beads from HeLa lysate

T1 sequence (P06493 whole entry): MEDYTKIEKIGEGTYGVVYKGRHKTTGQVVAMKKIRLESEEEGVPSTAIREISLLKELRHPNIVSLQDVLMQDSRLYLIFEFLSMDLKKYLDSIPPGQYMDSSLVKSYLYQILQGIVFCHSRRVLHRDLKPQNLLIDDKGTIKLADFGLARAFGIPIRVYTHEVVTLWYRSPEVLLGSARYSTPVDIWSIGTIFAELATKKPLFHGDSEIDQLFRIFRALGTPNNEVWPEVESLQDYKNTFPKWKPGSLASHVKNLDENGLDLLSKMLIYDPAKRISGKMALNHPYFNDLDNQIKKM

B1: p13 protein encoded by the suc1 gene (other, fission yeast, UniProt P08463 1-113, looked up)
chain: MSKSGVPRLLTASERERLEPFIDQIHYSPRYADDEYEYRHVMLPKAMLKAIPTDYFNPETGTLRILQEEEWRGLGITQSLGWEMYEVHVPEPHILLFKREKDYQMKFSQQRGG
notes: also called p13-Suc1; p13 (Sucl)
  binding result: binds
